Data on 38 variants can be found in the RNAGym collection of RNA variant scans (doi:10.7554/elife.80360).

B1: Hairpin Ribozyme (parent)
chain: GUCCUCUUUCACGUGCGCGUGAAAGAGAGAAGUGAACCAGAGAAACACACGUUGUGGUAUAUUACCUGGUA

The variants in the data set derive from B1. As to the kind of experiment: self-cleavage, relative activity (ratio to wild type); higher = more cleavage; co-transcriptional.
GUCCUCUUUAACGUGCGCGUGAAAGAGAGAAGUGAACCAGAGAAACACACGUUGUGGUAUAUUACCCGGUA [C10A U67C]: the self-cleavage amounted to 0.188.
Consider GUCCUCUUUAACGUGCGCGUGAAAGAGAGAAGUGAACCAGAGAAACACACGUUGUGGUAUAUUACCGGGUA [C10A U67G], for which the self-cleavage came out at 0.171.
As for GUCCUCUUUGACGUGCGCGUGAAAGAGAGAAGUGAACCAGAGAAACACACGUUGUGGUAUAUUACCUGGUU [C10G A71U], the self-cleavage worked out at 0.589.
For the variant GUCCUCUUUGACGUGCGCGUGAAAGAGAGAAGUGAACCAGAGAAACACACGUUGUGGUAUAUUACCUGGUG [C10G A71G], the self-cleavage is 0.705.
Consider GUCCUCUUUGACGUGCGCGUGAAAGAGAGAAGUGAACCAGAGCAACACACGUUGUGGUAUAUUACCUGGUA [C10G A43C], for which the self-cleavage was found to be 0.128.
In the case of GUCCUCUUUGACGUGCGCGUGAAAGAGAGAAGUGAACCAGAGUAACACACGUUGUGGUAUAUUACCUGGUA [C10G A43U], the self-cleavage came to 0.157.
As to GUCCUCUUUGACGUGCGCGUGAAAGAGAGAAGUGAACCAGAGAAACACACGUUGUGGUAUAUUACCUGGUA [C10G], the self-cleavage came to 0.737.
The value for GUCCUCUUUAACGUGCGCGUGAAAGAGAGAAGGGAACCAGAGAAACACACGUUGUGGUAUAUUACCUGGUA [C10A U33G] was 0.114; that for GUCCUCUUUGACGUGCGCGUGAAAGAGAGAAGUGAACCAGAGAAACACACGUUGUGGUAUAUUGCCUGGUA [C10G A64G] was 0.397; that for GUCCUCUUUGACGUGCGCGUGAAAGAGAGAAGUGAACCAGAGAAACACACGUUGUGGUAUAUUUCCUGGUA [C10G A64U] was 0.199.
Take GUCCUCUUUAACGUGCGCGUGAAAGAGAGAAGUGAACCAGAGAAACACACGUAGUGGUAUAUUACCUGGUA [C10A U53A]: the self-cleavage was 0.678.
Take GUCCUCUUUAACGUGCGCGUGAAAGAGAGAAGUGAACCAGAGAAACACACGUCGUGGUAUAUUACCUGGUA [C10A U53C]: the self-cleavage came to 0.888.
On to GUCCUCUUUAACGUGCGCGUGAAAGAGAGAAGUGAACCAGAGAAACACACGUUGUGGUAUAUUACCUGGAA [C10A U70A], for which the self-cleavage was 0.498.
Consider GUCCUCUUUGACGUGCGCGUGAAAGAGAGAAGUGACCCAGAGAAACACACGUUGUGGUAUAUUACCUGGUA [C10G A36C], for which the self-cleavage was 0.498.
Regarding GUCCUCUUUAACGUGCGCGUGAAAGAGAGAAGUGAACCAGAGAAACACACGCUGUGGUAUAUUACCUGGUA [C10A U52C], the self-cleavage is 0.81.
In the case of GUCCUCUUUAACGUGCGCGUGAAAGAGAGAAGUGAACCAGAGAAACACACGAUGUGGUAUAUUACCUGGUA [C10A U52A], the self-cleavage is 0.783.
Take GUCCUCUUUGACGUGCGCGUGAAAGAGAGAAGUGAACCAGAGAACCACACGUUGUGGUAUAUUACCUGGUA [C10G A45C]: the self-cleavage was found to be 0.114.
Regarding GUCCUCUUUGACGUGCGCGUGAAAGAGAGAAGUGAACCAGAGAAUCACACGUUGUGGUAUAUUACCUGGUA [C10G A45U], the self-cleavage amounted to 0.136.
The value for GUCCUCUUUGACGUGCGCGUGAAAGAGAGAAGUGAACCAGAGAAGCACACGUUGUGGUAUAUUACCUGGUA [C10G A45G] was 0.118; that for GUCCUCUUUAACGUGCGCGCGAAAGAGAGAAGUGAACCAGAGAAACACACGUUGUGGUAUAUUACCUGGUA [C10A U20C] was 0.732.
As for GUCCUCUUUAACGUGCGCGUGAAAGAGAGAAGUGAACCAGAGAAACACACGUUGUGGGAUAUUACCUGGUA [C10A U58G], the self-cleavage came out at 0.592.
The value for GUCCUCUUUGGCGUGCGCGUGAAAGAGAGAAGUGAACCAGAGAAACACACGUUGUGGUAUAUUACCUGGUA [C10G A11G] was 0.655.
The value for GUCCUCUUUGACGUGCGCGUGAGAGAGAGAAGUGAACCAGAGAAACACACGUUGUGGUAUAUUACCUGGUA [C10G A23G] was 0.419; that for GUCCUCUUUGACGUGCGCGUGAAAGAGAGAAGUGAACCAGAGAAACACACGUUGUGGUAUGUUACCUGGUA [C10G A61G] was 0.233.
Regarding GUCCUCUUUGACGUGCGCGUGAAAGAGAGAUGUGAACCAGAGAAACACACGUUGUGGUAUAUUACCUGGUA [C10G A31U], the self-cleavage stood at 0.084.
The value for GUCCUCUUUAACGUGCGCGUGAAAGAGAGAAGUGAACCAGAGAAACACACGUUGUGGUAUAUCACCUGGUA [C10A U63C] was 0.207; that for GUCCUCUUUAACGUGCGCGUGAAAGAGAGAAGUGAACCAGAGAAACACACGUUGUGGUAUAUGACCUGGUA [C10A U63G] was 0.152.
The value for GUCCUCUUUGACGUGCGCGUGGAAGAGAGAAGUGAACCAGAGAAACACACGUUGUGGUAUAUUACCUGGUA [C10G A22G] was 0.649; that for GUCCUCUUUGACGUGCGCGUGAAAGAGAGAAGUGAACCAGAGAAACUCACGUUGUGGUAUAUUACCUGGUA [C10G A47U] was 0.175.
The value for GUCCUCUUUGACGUGCGCGUGAAAGAGAGAAGUGAACCAGAGAAACGCACGUUGUGGUAUAUUACCUGGUA [C10G A47G] was 0.177.
For the variant GUCCUCUUUGACGUGCGCGUGAAAGAGAGAAGUGAACCAGAGAAACACCCGUUGUGGUAUAUUACCUGGUA [C10G A49C], the self-cleavage was 0.198.
Turning to GUCCUCUUUGACGUGCGCGUGAAAGAGAGAAGUGAACCAGAGAAACACUCGUUGUGGUAUAUUACCUGGUA [C10G A49U], the self-cleavage is 0.21.
As to GUCCUCUUUAACGUGCGCGUGAAAGAGAGAAGUGAACCAGAGAAACACACGUUGUGGUAUAAUACCUGGUA [C10A U62A], the self-cleavage is 0.238.
In the case of GUCCUCUUUGACGUGCGCGUGAAAGAGAGAAGUGAACCAGUGAAACACACGUUGUGGUAUAUUACCUGGUA [C10G A41U], the self-cleavage amounted to 1.09.
Consider GUCCUCUUUGACGUGCGCGUGAAAGAGAGAAGUGAACCAGGGAAACACACGUUGUGGUAUAUUACCUGGUA [C10G A41G], for which the self-cleavage turned out to be 0.734.
On to GUCCUCUUUGACGUGCGCGUGAAAGAGAGAAGUGAACCAGCGAAACACACGUUGUGGUAUAUUACCUGGUA [C10G A41C], for which the self-cleavage was determined as 0.777.
As for GUCCUCUUUGACGUGCGCGUGAAUGAGAGAAGUGAACCAGAGAAACACACGUUGUGGUAUAUUACCUGGUA [C10G A24U], the self-cleavage stood at 0.468.
With GUCCUCUUUGACGUGCGCGUGAAGGAGAGAAGUGAACCAGAGAAACACACGUUGUGGUAUAUUACCUGGUA [C10G A24G], the self-cleavage came out at 0.63.
